No end group written: not given here.
Biological target: T1, Streptavidin (UniProt P22629 37-163, limits assumed)
T1 construct: also called 35S-streptavidin; Radiolabeled Streptavidin (35S-SLR labeled)
Assay: radioligand binding assay, 35S-streptavidin on 1:100 biotinylated:nonbiotinylated self-assembling peptides (1% w/v)
From the text: We have previously shown that biotinylated peptides can be synthesized and incorporated with self-assembling (Davis, et al., Circ Res 97: 8-15 (2005)). To allow sufficient distance from the peptide to allow streptavidin binding (Livnah, et al., Proc Natl Acad Sci USA 90:5076-5080 (1993); Pugliese, et al., J. Mol Biol 231:698-710 (1993)), the biotin was attached to the peptide by two N-e-Fmoc-e-aminocaproic acids.

T1 sequence (P22629 37-163 limits assumed): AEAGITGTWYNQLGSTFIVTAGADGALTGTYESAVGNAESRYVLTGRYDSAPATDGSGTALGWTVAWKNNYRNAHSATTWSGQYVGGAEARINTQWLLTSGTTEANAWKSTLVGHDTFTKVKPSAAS

B1: Biotinylated RAD16-II peptide (peptide)
peptide: RARADADARARADADA-NH2
modifications: not fully specified (N-terminus); also: biotin linked via 2 aminocaproic acid groups, attachment residue not given here
notes: Synthetic self-assembling peptide; In the assays it was mixed 1:100 with nonbiotinylated RAD16-II (1% final peptide weight/volume) and assembled into fibers; also called biotinylated self-assembling peptides; biotinylated peptides
Kd: 190 nM

Source: patent publication US20060088510A1 (BRIGHAM AND WOMEN S HOSPITAL, published 2006)
